Target: Lys^B29Atto655-insulin aspart (human) (UniProt P01308)
Assay: single-molecule TIRF microscopy; 10 nM labelled insulin in solution binding to labelled insulin nonspecifically immobilised on a PLL-PEG passivated surface; no Zn^2+, no phenol; 10 mM Na2HPO4, 10 mM NaH2PO4, 5 mM NaCl, pH 7.32, room temperature; seven-state HMM, rate constants of each step between monomer and hexamer (kij: state i to state j)

k24 (association rate constant, dimer to tetramer): 2e+08 M⁻¹ s⁻¹
k31 (dissociation rate constant, trimer to monomer): 0.062 s⁻¹
Substance: Lys^B29Atto655-insulin aspart (from UniProt P01308 90-110; P01308 25-54) (natural protein)

— article PMC9932072
